From patent publication US20190375786A1, “STABLE PEPTIDES AND METHODS OF USE THEREOF” (Fred Hutchinson Cancer Research Center, priority 2016, published 2019)
“Also recorded” adds a separate entry of the source. Positions of bridges follow the written chain, without caps; N, C: chain ends. Residues, ends and D or L forms follow the SMILES beside them. No end group written: not given here.

Experiments:
[1] = molecular target: T1, pepsin (Sus scrofa, UniProt P00791); experiment: Pepsin digestion resistance in simulated gastric fluid, RP-HPLC; assay type: in vitro ADME, porcine; design: purchased Sigma Aldrich P7012; settings: HPLC; for resistance to pepsin, Example 7 conditions (in words): 500 U pepsin (5000 U/ml) in SGF, 30 min at room temperature, with or without DTT; for resistance to pepsin digestion (in words): 500 U/ml pepsin (50 U per reaction) in SGF, 30 minutes at 37.5° C.
T1 sequence (P00791 60-385): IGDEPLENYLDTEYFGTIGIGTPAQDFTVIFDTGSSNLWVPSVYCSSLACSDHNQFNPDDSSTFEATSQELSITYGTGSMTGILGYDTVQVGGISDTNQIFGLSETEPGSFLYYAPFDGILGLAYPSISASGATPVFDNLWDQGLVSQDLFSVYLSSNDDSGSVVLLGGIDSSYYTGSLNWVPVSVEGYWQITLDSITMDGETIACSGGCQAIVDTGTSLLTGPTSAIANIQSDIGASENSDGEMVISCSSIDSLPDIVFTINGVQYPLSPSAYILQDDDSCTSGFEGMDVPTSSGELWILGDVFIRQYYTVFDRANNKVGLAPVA
Summary of the method: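 Digestion resistance read by reversed-phase HPLC (C-18, 0.1% TFA, 5–45% acetonitrile over 10 min; 214/280 nm) after 12.5 μg peptide spent 30 min at 37.5 °C in pH 1.05 simulated gastric fluid, with or without 500 U/ml pepsin. Some samples quenched with Tris base and DTT.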

[2] = molecular target: trypsin (Sus scrofa, UniProt P00761); experiment: Trypsin digestion resistance of soluble peptide, RP-HPLC; assay type: in vitro ADME, porcine; design: purchased Sigma Aldrich 6567; settings: HPLC; for resistance to trypsin, Example 7 conditions (in words): 50 U trypsin (500 U/ml), 30 min at room temperature, with or without 10 mM DTT; for resistance to trypsin digestion (in words): 500 U/ml trypsin (50 U per reaction), 30 minutes at 37.5° C.
trypsin, sequence (P00761 9-231): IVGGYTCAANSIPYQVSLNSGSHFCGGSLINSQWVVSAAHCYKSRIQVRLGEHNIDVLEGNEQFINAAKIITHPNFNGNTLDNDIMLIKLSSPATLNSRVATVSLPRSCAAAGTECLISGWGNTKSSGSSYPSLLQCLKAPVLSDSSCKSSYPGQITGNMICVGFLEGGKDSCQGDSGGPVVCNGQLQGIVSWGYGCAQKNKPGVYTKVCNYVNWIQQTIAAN
Summary of the method: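 Read-out was RP-HPLC (C-18, water/acetonitrile with 0.1% TFA, 5-45% over 10 min) of peptide left after trypsin treatment. Digest: 12.5 μg peptide, 500 U/ml porcine trypsin, PBS, 37.5° C for 30 min, stopped by soybean trypsin inhibitor; samples then reduced (10 mM DTT) or left non-reduced.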

[3] = Stability in simulated gastric fluid (SGF, pH 1.05), RP-HPLC; assay type: physicochemical; settings: HPLC vs non-reduced peptide
Protocol: (§1) Peptides were first suspended in 500 ul of ddH2O to a stock concentration of 2 mg/ml. Reactions were prepared by adding 12.5 ug of peptide from the stock solution to a 10 mM solution of DTT in PBS and allowed to incubate at room temperature for 30 minutes. Other reactions were prepared with 12.5 μg peptide with or without 500 U/ml pepsin in simulated gastric fluid (SGF; pH 1.05; […] sodium chloride in 0.7% (v/v) hydrochloric acid) and were incubated for 30 minutes at 37.5° C. Some reactions were quenched with a final concentration of 100 mM Tris base and 10 mM dithiothreitol (DTT). Some reactions were performed in all of the above components, including simulated gastric fluid, pepsin, Tris, and DTT (referred to as SPTD). Reversed phase HPLC (RP-HPLC) was run on samples using an Agilent 1260 HPLC equipped with a C-18 Poroshell 120B column. Sample were analyzed by a gradient method with a mobile phase of Solvent A (water with 0.1% TFA) and Solvent B (acetonitrile with 0.1% TFA). Solvent B was ramped up from 5%-45% of the mobile phase over a period of 10 minutes. Peptides were detected at an absorbance of 214 nm and 280 nm.
This example illustrates peptide stability in biological conditions including in the presence of reducing agents, proteases, oxidative conditions, acidic conditions, and simulated gastric fluids. […] Various peptides were suspended in 500 μl of ddH2O at a stock concentration of 2 mg/ml. This was then diluted in accord with the reaction conditions to prevent adverse buffering effects. Reactions were prepared with 12.5 μg peptide dissolved in solution and, in some samples, additionally suspended in a 10 mM solution of DTT, simulated gastric fluid (pH 1.05; […] sodium chloride in 0.7% (v/v) hydrochloric acid), 500 U pepsin (5000 U/ml pepsin), 50 U trypsin (500 U/ml trypsin) with 1 mg/ml inhibitor in PBS, or a combination of any of these conditions. All protease reactions were incubated for 30 min at room temperature and then quenched. Pepsin reactions were quenched by adding Tris base to a final concentration of 0.075 M. Trypsin reactions were quenched by adding excess soybean trypsin inhibitor. RP-HPLC was then run on samples using an Agilent 1260 HPLC equipped with a C-18 Poroshell 120B column. Sample were analyzed by a gradient method with a mobile phase of Solvent A (water with 0.1% TFA) and Solvent B (acetonitrile with 0.1% TFA). Solvent B was ramped up from 5%-45% of the mobile phase over a period of 10 minutes.

[4] = SYPRO Orange melting assay; assay type: physicochemical; settings: heating from 20° C. to 95° C.
Protocol: (§2) Protein secondary structures were assessed using Circular Dichrosim (CD). CD spectra were measured with a Jasco J-720W spectropolarimeter using a 1.0 mm path length cell. Protein samples in 10 mM phosphate buffer (pH=7.4) were at 25-30 μM protein concentration. Samples were analyzed at wavelength ranges of […]. Data were expressed in terms of relative ellipticity [θ]; (mdeg). To determine thermal stability of proteins, samples were subjected to incremental increase in temperature at a ramp of 2° C./min from 20° C. to 95° C. Stability and protein unfolding were monitored at 220 and 215 for α-helix and β-sheet secondary structures, respectively. Data are expressed in terms of relative ellipticity [θ], reported in mdeg. For SEQ ID NO: 43 and its point mutant variants, no changes to the α-helix-dominated structure were observed upon heating up to 95° C. […] Additionally, protein melting temperature (Tm) determination was performed by monitoring protein unfolding using SYPRO Orange dye (Molecular Probes). In brief, 0.1 mg/mL protein sample in 20 μL total volume PBS buffer were mixed with 24, of 10× SYPRO Orange dye. Dye intercalation into the hydrophobic protein core following protein unfolding was assayed using the C1000 Touch Thermal Cycler with CFX96 Deep Well Real-Time System (BioRad). Samples were heated from 20° C. to 95° C. with stepwise increments of 0.5° C. per minute and a 5 sec hold step for every point, followed by fluorescence reading. Tm were calculated by analyzing the derivatives of Relative florescence Units (RFU). FIG. 17D illustrates this SYPRO Orange melting assay of Peptides.

[5] = Circular dichroism thermal stability, heating 20° C. to 95° C.; assay type: physicochemical; settings: 10 mM phosphate buffer pH 7.4; heated 20° C. to 95° C.
Protocol: as §2

[6] = Resistance to reduction by DTT, RP-HPLC; assay type: physicochemical; settings: 10 mM DTT; HPLC vs non-reduced peptide
Summary of the method: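 Peptide (12.5 μg from a 2 mg/ml stock, or 0.015 mM final in PBS) was held 30 min at room temperature with or without 10 mM DTT. Reduced and non-reduced forms were compared by C-18 RP-HPLC using a 5–45% acetonitrile/0.1% TFA gradient over 10 min, with detection at 214 and 280 nm.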

[7] = system: TEAD protein; experiment: Binding of surface-displayed (SDGF) peptide to biotinylated target protein after reducing agent, flow cytometry; assay type: cell-based; settings: HEK-293 cells displaying peptide, 20 nM biotinylated target protein
Protocol: Designed or engineered peptides of this disclosure were also tested to evaluate if the peptides' binding activity to their target protein (e.g., TEAD protein) was affected by exposure to reducing conditions. HEK-293T suspension cells were transfected with a surface display GFP FasL(SDGF) vector comprising SEQ ID NO: 39 (SDGF-SEQ ID NO: 39) or SDGF vector comprising SEQ ID NO: 43 (SDGF-SEQ ID NO: 43) construct. Cultures were grown for two days, followed by incubation in 10 mM GSH or 10 mM DTT. Finally, cells were stained with biotinylated-target protein to evaluate the binding activity of a peptide to the target protein. FIG. 15 illustrates the stability of peptides of SEQ ID NO: 39 and SEQ ID NO: 43 after exposure to a reducing agent. Each peptide was expressed on a cell surface and tested for binding to a target protein after cells expressing SDGF-SEQ ID NO: 43 or SEQ ID NO: 39 were exposed to a reducing agent. FIG. 15A illustrates a flow cytometry plot showing binding of HEK-293 suspension cells transfected with SDGF-SEQ ID NO: 39 (GFP) incubated for 5 minutes in PBS, 10 mM DTT, or 10 mM reduced glutathione (GSH) before staining with 20 nM biotinylated target protein and 20 nM AF647-streptavidin. FIG. 15B illustrates a flow cytometry plot showing binding of HEK-293 suspension cells transfected with SDGF-SEQ ID NO: 43 (GFP) incubated for 5 minutes in PBS, 10 mM DTT, or 10 mM reduced glutathione (GSH) before staining with 20 nM biotinylated target protein and 20 nM AF647-streptavidin. FIG. 15C illustrates quantification of the AF647 mean fluorescence intensity (MFI) of cells falling within the “slice” gate shown in FIG. 15A and FIG. 15B. […] In other words, peptides of SEQ ID NO: 39 and SEQ ID NO: 43 were resistant to reduction by GSH.

[8] = Resistance to reduction by reduced glutathione (GSH), HPLC; assay type: physicochemical; settings: 10 mM reduced glutathione (GSH); HPLC vs non-reduced peptide
Protocol: This example describes stability of designed or engineered peptides under reducing conditions. Peptides that are designed or engineered to interact with one or more target proteins in the cell, such as proteins in the nucleus, are exposed to reducing conditions in the cytosolic compartment of cells. Thus, it is advantageous for peptides of this disclosure to display stability in reducing conditions. Stability of peptides of this disclosure was tested in 10 mM DTT and 10 mM GSH. GSH is a more physiologically relevant reducing agent for testing peptide stability in intracellular conditions. An example of a peptide-target protein interaction is a peptide binding to a TEAD protein.

[9] = molecular target: T1, pepsin; experiment: Stability in SPTD (simulated gastric fluid, pepsin, Tris and DTT), RP-HPLC; assay type: in vitro ADME; settings: SGF pH 1.05 with 500 U/ml pepsin, 100 mM Tris, 10 mM DTT
Protocol: as §1

[10] = Resistance to elevated temperature, HPLC; assay type: physicochemical; settings: 100° C. for 1 hour; HPLC
Summary of the method: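 Peptides were incubated at room temperature, 70° C or 100° C for one hour in ddH2O; another protocol used 70° C, 75° C or 100° C for one hour in 0.5 mM PBS, then pelleting and analysis of the supernatant. Remaining peptide was measured by C-18 RP-HPLC, 5–45% acetonitrile/0.1% TFA over 10 min.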

| Compound | resistance to pepsin, Example 7 conditions (in words) [1] | resistance to trypsin, Example 7 conditions (in words) [2] | stability in simulated gastric fluid / low pH (in words) [3] | melting temperature (Tm) [4] | CD secondary structure signature before (Pre) and after (Post) incubation at 95° C. [5] | resistance to reduction by DTT (in words) [6] | resistance in SPTD (SGF, pepsin, Tris, DTT) (in words) [9] | resistance to pepsin digestion (in words) [1] | resistance to trypsin digestion (in words) [2] | other results |
| --- | --- | --- | --- | --- | --- | --- | --- | --- | --- | --- |
| GSGVPINVRSRGSRDSLDPSRRAGMRFGRSINSRSHSTP [SEQ ID NO: 177, reference compound] | degraded | degraded | stable | – | – | – | – | – | – | – |
| GSPDEYIERAKECCKKQDIQCCLRIFDESGDPNVMLICLFCW [SEQ ID NO: 44] | – | – | – | no melting temperature could be determined | similar; also recorded: identical | partially resistant | – | – | – | – |
| GSPDEYIERAKECCKKGDIQCCLRYFEESGDPNVMLICLFCP [SEQ ID NO: 39] | – | – | – | – | – | – | – | – | – | binding to target protein after DTT treatment ([7]; 5 minutes in 10 mM DTT): partial loss in binding; binding to target protein after GSH treatment ([7]; 5 minutes in 10 mM GSH): no loss in binding; resistance to GSH reducing conditions [8]: resistant |
| CC[C@H](C)[C@@H]1NC(=O)[C@@H]2CSSC[C@H](NC(=O)[C@H](CCCCN)NC(=O)[C@@H](NC(=O)[C@H](CC(N)=O)NC(=O)[C@@H](NC(=O)[C@@H]3CCCN3C(=O)[C@@H](NC(=O)CNC(=O)[C@H](CO)NC(=O)CN)C(C)C)[C@@H](C)CC)C(C)C)C(=O)N[C@@H](CCCNC(=N)N)C(=O)NCC(=O)N[C@@H](CO)C(=O)N[C@@H](CCCNC(=N)N)C(=O)N[C@@H](CC(=O)O)C(=O)N[C@H]3CSSC[C@H](NC(=O)[C@H](CCCCN)NC(=O)[C@H](CO)NC(=O)[C@H](CC(N)=O)NC1=O)C(=O)N[C@@H](Cc1c[nH]cn1)C(=O)N[C@H](C(=O)N[C@H](C(=O)N1CCC[C@H]1C(=O)O)[C@@H](C)O)CSSC[C@H](NC(=O)[C@@H]1CCCN1C(=O)[C@H](CC(=O)O)NC(=O)[C@H](CC(C)C)NC3=O)C(=O)N[C@@H](CCCCN)C(=O)N[C@@H](CCCCN)C(=O)N[C@@H](C)C(=O)NCC(=O)N[C@@H](CCSC)C(=O)N[C@@H](CCCNC(=N)N)C(=O)N[C@@H](Cc1ccccc1)C(=O)NCC(=O)N[C@@H](CCCCN)C(=O)N2 [SEQ ID NO: 27] (H-GSGVPINVKCRGSRDCLDPCKKAGMRFGKCINSKCHCTP-OH; disulfide 10-30, 16-35, 20-37) | remained intact | remained intact | highly resistant; also recorded: remained intact | – | – | – | highly resistant | highly resistant | highly resistant; also recorded: fully resistant | – |
| GSPDEYIERAKECCKKQDIQCCLRIFDESKDPNVMLICLFCP [SEQ ID NO: 45] | – | – | – | no melting temperature could be determined | identical; also recorded: similar | partially resistant | – | resistant | – | resistance to incubation at 100° C. (in words) [10]: resistant |
| GSQFTNVSCTTSRECWSVCQRLHNTSRGRCMNRRCRCYS [SEQ ID NO: 2] | – | – | remained intact | – | – | remained intact; also recorded: highly resistant | resistant | – | highly resistant | – |
